Source: the RNAGym collection of RNA variant scans (doi:10.7554/elife.90254)

B1: LINE1-mini (parent)
chain: GGCAGAGCUCAACACAGCGUGGCAAAGUGGCUGUGGCUAGACUGCC

Variants of: B1
Assay: self-cleavage, relative activity (ratio to wild type); higher = more cleavage; in vitro, sequencing; the parent is a self-cleaving ribozyme

Row | Variant | self-cleavage
1 | GGCAGAGCUCGACACAGCGUGGCAAAGUAGCUGUGGCUAGACUGCC | 0.04
2 | GGCAGAUCUCAACACAGCGUGGCUAAGUGGCUGUGGCUAGACUGCC | 0.07
3 | GGCAGAGCUCAACACAGAGUGGCAAAGUGGCUGUGGCUAUACUGCC | 0.06
4 | AGCAGAGCUCAAAACAGCGUGGCAAAGUGGCUGUGGCUAGACUGCC | 0.13
5 | GGCAGAGCUCAACACAGCGUGGCAAACUGGCUGUGGCUAGACUCCC | 0.14
6 | GGCAAAACUCAACACAGCGUGGCAAAGUGGCUGUGGCUAGACUGCC | 0.35
7 | GGCAGAGCUCAACACAGCGCGGCAAAGUGGCUGUGGCUAGAAUGCC | 0.04
8 | CGCUGAGCUCAACACAGCGUGGCAAAGUGGCUGUGGCUAGACUGCC | 0.06
9 | GGCAGAGCUCAACACAGCGUGGCAAAGUGGCUGUGGAUAAACUGCC | 0.19
10 | GGCAGAGCUCAGCACAGCGUGGCAAAGUGGCUGUGGCUAGACUGAC | 0.1
11 | GGCAGAGCUCAACACAGCGUGCCAAAGUGGCUGUGGCUCGACUGCC | 0.19
12 | GGCAGAGCUCAACAAAGCGUGGCAAAGUGGCUGUGGCUAGACGGCC | 0.07
13 | GGGAGAGCUCAACACAGCGUGGUAAAGUGGCUGUGGCUAGACUGCC | 0.81
14 | GGCAGAGCUCAACAUAGCGUGGCAAAGUGGCUGUGGCUAGACUGAC | 0.21
15 | GGCAGAGCUCAACACAGCGUGGCAAAGUGGCUGUGGCUAUACAGCC | 0.08
16 | GGCAUAGCUCAACACAGCGUGGCAAAGUGGCUGUGGCUAGAGUGCC | 0.04
17 | GGCAGCGCUCAACACAGCGUGGCAAAGUGGCUGUGGCUACACUGCC | 0.1
18 | GGCAGAGCUCAAUACACCGUGGCAAAGUGGCUGUGGCUAGACUGCC | 0.11
19 | GGCAGAGUUCAACACAGCGUGGCAAAGUGGCGGUGGCUAGACUGCC | 0.1
20 | GGCAGAGCUCCACACAGCGUGGCAAAGUGGAUGUGGCUAGACUGCC | 0.02
21 | GGCAGAGCUUAACACAGCGUAGCAAAGUGGCUGUGGCUAGACUGCC | 0.68
22 | GGCAGAGCUCAACACAGCGAGGCAAAGUGGCUGUGGCCAGACUGCC | 0.41
23 | GGCAGAGCUCAAUACAGCGUGGCAAAGUGGCUGGGGCUAGACUGCC | 0.05

Row | Variant | self-cleavage
24 | GGCAGAGCUCUACACAGCGUGGCAAAGUGGCUGAGGCUAGACUGCC | 0.04
25 | GGCAGAGCUCAACACAGAGUGGCAAAGUGGCUGUGCCUAGACUGCC | 0.03
26 | GGCAGAGCUCAACACAGCGUGGCAAAGUAGCUGUGGCUAGUCUGCC | 0.74
27 | GGCAGAGCUCAACACAGCGUUGCAAAGUGGCUGUGGCAAGACUGCC | 0.42
28 | GGCAGAGCUCAACACAGCGUGGCAAAGCCGCUGUGGCUAGACUGCC | 1.2
29 | GGCAGAGCUCAACACAGCGUGGCAAAGUCGCUGUGGCUAGAUUGCC | 0.22
30 | GGCAGAGCUCAACACAGCGUGGCAAAGUCGCUGUGGCUAGAGUGCC | 0.02
31 | GGGAGAGCUCAACACAGCGUGGCAAAGUGGCUGUGGCUAGCCUGCC | 0.1
32 | GGCAGAGCUCAACACAGCGUGGCAAAGUGGCUGGGGCUAAACUGCC | 0.03
33 | GGCAGAGCUCAACACAGCGUGGCAAAGUGGCUGGGGCUAUACUGCC | 0.05
34 | GGUAGAGCUCAACACAGCGUGGCAAAGUGGCUGUGGCUAGGCUGCC | 0.12
35 | GGCAGAGCUCAACACAGCGUGGCAAAGUGGCGGUGGAUAGACUGCC | 0.09
36 | GGCAGAGCUCCACACAGCGUGGCAAAGUGGCUGUGCCUAGACUGCC | 0.03
37 | GGCAGAGCUCAACUCAGCGUGGCAAAGUGGCUGUGGAUAGACUGCC | 0.08
38 | GGCAGAGCGCAACACAGCGUGGCAAUGUGGCUGUGGCUAGACUGCC | 0.15
39 | GGCAGAGCCCAACACAGCGUGGCAAAGUGGCUGUGGCUAGAAUGCC | 0.03
40 | GGCAGAACUCAACACAGCGUGGCAAAGUGGAUGUGGCUAGACUGCC | 0.21
41 | GGCAGAGCUCAACACAGCGUGGCAAAGUGGCUGUGGGUAGACUGCG | 0.17
42 | GGCAGAGCUUAACACAGCGUGGCAAAGUGGCUGUGUCUAGACUGCC | 0.03
43 | GCCAGAGCUCAACACAGCGUGGCAAAGUUGCUGUGGCUAGACUGCC | 0.19
44 | GGCAGAGCCCAACACAGGGUGGCAAAGUGGCUGUGGCUAGACUGCC | 0.03
45 | GGCACAGCUCAACACAGCGUGGCAAAGUGUCUGUGGCUAGACUGCC | 0.17
46 | GGCAGAGCUCAACACAGCGUGGCAAAGUGGCUUUGACUAGACUGCC | 0.08

Row | Variant | self-cleavage
47 | GACAGAGCUCAACACAGCGUGGCAAAGUGGUUGUGGCUAGACUGCC | 0.25
48 | GGCAGAGCUCAACACAGCGUGGCGAAGUGGCUGUGGCUAGGCUGCC | 0.6
49 | GGCAGAGCUCAACACAGCGUGGCAAAGUUGCUGUGGCCAGACUGCC | 0.47
50 | GGCAGAGUUCAACACAGCGUGGCAAAGGGGCUGUGGCUAGACUGCC | 0.13
51 | GUCAGAGCUCAUCACAGCGUGGCAAAGUGGCUGUGGCUAGACUGCC | 0.04
52 | GGCAGAGCUUAACACAGCGUGGCAAAGUGGCUGUGGCUAGACUGGC | 0.15
53 | GGCAGAGCUCUACACAGCGUGGCAAAGUGGGUGUGGCUAGACUGCC | 0.03
54 | GGAAGAGCUCAAUACAGCGUGGCAAAGUGGCUGUGGCUAGACUGCC | 1.71
55 | UUCAGAGCUCAACACAGCGUGGCAAAGUGGCUGUGGCUAGACUGCC | 0.13
56 | AGCAGAGCUCAACAGAGCGUGGCAAAGUGGCUGUGGCUAGACUGCC | 0.08
57 | GGCAGAGCUCAACACAGCGUGUCAAAGUGGCUGUGGAUAGACUGCC | 0.06
58 | GGUAGAGCUCAACACAGCGUAGCAAAGUGGCUGUGGCUAGACUGCC | 1.19
59 | GGCAGAGCUCAACACAGCGUGGCAAAGUGGCUGGGGCUAGAAUGCC | 0.07
60 | GGCAGAGCUCGACACAGCGUGGCAAAGUGGCUGUGGCUAGAUUGCC | 0.01
61 | GGCAGAGUUCAACACAGCGUGGCAAAGUGGCUGUGGCUAGAAUGCC | 0.11
62 | GGCAGAGCUCAACACUGCGUGUCAAAGUGGCUGUGGCUAGACUGCC | 0.42
63 | GGCAGAGCUCAACACAGCGUGGCAAACUGGCUGUGGCUACACUGCC | 0.07
64 | AGCAGAGCUCAACACAGCGUGGCAAAGUGGCUGUCGCUAGACUGCC | 0.1
65 | GGCAGAGCUCAACACAGCGCGGCAAAGUGGCUGUGGCUAGACUGAC | 0.34
66 | GGCAGAGCUCAACACAGCGUGGCAAAGUGGCUCCGGCUAGACUGCC | 0.03
67 | GGCAGAGCUCAACACAGCGUGGCAAAGUGGCUGUGGGUAGACAGCC | 0.07
68 | GGCAGAGCUCAACACAGCGUGGCAAAGUGGCUAUGGCUAGACGGCC | 0.13
69 | GGCAGUGCUCAACACAGCGUGGCAAAGUGACUGUGGCUAGACUGCC | 1.65

Row | Variant | self-cleavage
70 | GGCAGAGCUCAACACAGCGUGGCACAGGGGCUGUGGCUAGACUGCC | 0.65
71 | GGCAGAGCUCAACACAGCGUGGCAGAGUCGCUGUGGCUAGACUGCC | 0.65
72 | GGAAGAGCUCAACACAGCGUGGCAAAGUGGCUGUGGCAAGACUGCC | 0.34
73 | GGCAGAGCACCACACAGCGUGGCAAAGUGGCUGUGGCUAGACUGCC | 0.02
74 | GGCAGAGCUCUACACAGCGUGGCAAAGUGGCUGUGGCUAGCCUGCC | 0.04
75 | GGCAGAGCUCAACACAGCGUGGCAAAGCGGCUGUGGCUAGACUGCA | 0.66
76 | GGCAGAGCUCAACACACCGGGGCAAAGUGGCUGUGGCUAGACUGCC | 0.14
77 | GGCAGAGCUCAACACAGCGUGGCGAAGUGGCUGUGGCUAGACUGGC | 0.22
78 | GGCAGAGCUCAAUACAGCGUGGCACAGUGGCUGUGGCUAGACUGCC | 0.13
79 | GGCAGAGCACAACACAGCGUGGCAAAGUGGCUGUGGCUAGAUUGCC | 0.15
80 | GGCAGAGCUCAACACAGCGUGGCAAAAUGGCUGUGGCUAGACGGCC | 0.05
81 | AGCAGAGCUCAACACAGCGUGGCAAACUGGCUGUGGCUAGACUGCC | 0.86
82 | GGCAGAUCUCAACACAGCGUGGCAGAGUGGCUGUGGCUAGACUGCC | 0.1
83 | GGCAGAGCUCAACACAGCGUGGCAAAGUGGCUGAGGGUAGACUGCC | 0.04
84 | GGCAGCGCUCAACACAGCCUGGCAAAGUGGCUGUGGCUAGACUGCC | 0.3
85 | AGCAGAGCUCAACACAGCGUGGGAAAGUGGCUGUGGCUAGACUGCC | 0.53
86 | GGCAGAGCUCAACACAGCGUGGCAGAGUGGCUGUGGCUAGGCUGCC | 0.26
87 | GGCAGAGCUCAACACAGCGUGGCAAGGUGGUUGUGGCUAGACUGCC | 0.15
88 | GGCAGAGCUCAACACUGCGUGGCACAGUGGCUGUGGCUAGACUGCC | 0.03
89 | GGCAGAGCUCAACACAGCGUGGCAAAGUGGCUCUGGCUAGCCUGCC | 0.05
90 | GGCAGAGCUCAACACAGCUUGGGAAAGUGGCUGUGGCUAGACUGCC | 0.7
91 | GGCAGAGCUCAACACAGCGUGGGAAAGUGGCUGUGCCUAGACUGCC | 0.11
92 | GGCAGAGCUCAACACAGCGUGGCAAAGUGGCUGUGGCUAGACUUGC | 0.17

Row | Variant | self-cleavage
93 | GGCAGAACUCAACACAGAGUGGCAAAGUGGCUGUGGCUAGACUGCC | 0.07
94 | GGCAGAGCUCAACACAGCGUGGCAAAGUGGCUGGGGCUAGACUGGC | 0.13
95 | GGCAGAGCUCAACACAGCGUGGCAAACUGGCUGUGGCUAGACCGCC | 0.07
96 | GGCAGAGCUCAACACAGCGUGGGAAAGUGGCUGUGGCUAGACUUCC | 0.16
97 | AGCCGAGCUCAACACAGCGUGGCAAAGUGGCUGUGGCUAGACUGCC | 0.08
98 | GCCAGAGCUCAACACAGCGUGGCAAAGUGGAUGUGGCUAGACUGCC | 0.07
99 | GGCAGAGCUGAACACAGCGUGGCAAAGUGGCUGUGGCUAGACUGCC | 0.11
100 | GGCAGAGCUAAACACAGCGUGGCAAAGUGGCUGUGGCUAGUCUGCC | 0.02
101 | GGCAGAGCUCAACACAGCGUGGCAAAGUGGCUGUGGCUCCACUGCC | 0.07
102 | GGCAGAGCUCAACAGAGCGUGGCAAAGUGGCUGUGGCUAGACUUCC | 0.03
103 | GGCAGAGCUGAACACGGCGUGGCAAAGUGGCUGUGGCUAGACUGCC | 0.06
104 | GGCGGAGCUCAACACAGCCUGGCAAAGUGGCUGUGGCUAGACUGCC | 0.23
105 | GGUAGAGCUCUACACAGCGUGGCAAAGUGGCUGUGGCUAGACUGCC | 0.08
106 | AGCAGAGCUGAACACAGCGUGGCAAAGUGGCUGUGGCUAGACUGCC | 0.18
107 | AGCAGAGCUAAACACAGCGUGGCAAAGUGGCUGUGGCUAGACUGCC | 0.12
108 | GGCAGAGCUCAACACUGCGUGGCAAAGUGGCUGUGGCUAGACUGCA | 0.09
109 | GGCAGAGCUCAACACAGCGUCGCAAAGUGGCUGUGGCAAGACUGCC | 0.21
110 | GGCAGAGCUCAACACAGCGUGGCAAAGUGGCUGUGGCUUGAGUGCC | 0.03
111 | GGCAGAGCUCAACACAGCGUGGCAACGUGGCUGUGGCUAGGCUGCC | 0.23
112 | GGCUGAGCUCAACACAGCGUGGCAAAGCGGCUGUGGCUAGACUGCC | 0.32
